The target in test [1] is FGFR2 isoform FGFR2-IIIb (FGFR2b), on the surface of cancer cell lines (UniProt P21802). As to the kind of experiment: flow cytometry on SNU16-Luc cells (gastric cancer, positive control), detected with APC anti-human IgG1.
Test [2] shares this target. As to the kind of experiment: flow cytometry on SW900 cells (squamous lung cancer), detected with APC anti-human IgG1.
Test [3] has the same target. As to the kind of experiment: flow cytometry on KATOIII cells (gastric cancer, positive control), detected with APC anti-human IgG1.
Test [4] shares this target. As to the kind of experiment: flow cytometry on HCC1187 cells (TNBC), detected with APC anti-human IgG1. On the technique in general: Flow cytometry measures light scatter and fluorescence of single cells or particles in a stream.
Test [5] has the same target. As to the kind of experiment: flow cytometry on LUDLU1 cells (squamous lung cancer), detected with APC anti-human IgG1.
Test [6] has the same target. The test can be described thus: flow cytometry on NCIH2170 cells (squamous lung cancer), detected with APC anti-human IgG1.
The target is the same in test [7]. As to the kind of experiment: flow cytometry on HCC1569 cells (TNBC), detected with APC anti-human IgG1.
Test [8] shares this target. The test can be described thus: flow cytometry on HCC1937 cells (TNBC), detected with APC anti-human IgG1.
For test [9] the target is unchanged. As to the kind of experiment: flow cytometry on KNS-62 cells (squamous lung cancer), detected with APC anti-human IgG1.
For test [10] the target is unchanged. The test can be described thus: flow cytometry on SNU16 cells (gastric cancer, positive control), detected with APC anti-human IgG1.
The target is the same in test [11]. The test can be described thus: flow cytometry on SW1573 cells (squamous lung cancer), detected with APC anti-human IgG1.
Test [12] shares this target. As to the kind of experiment: flow cytometry on BT20 cells (TNBC), detected with APC anti-human IgG1.
Test [13] shares this target. The test can be described thus: flow cytometry on HARA cells (squamous lung cancer), detected with APC anti-human IgG1.
Test [14] shares this target. As to the kind of experiment: flow cytometry on LC1F cells (squamous lung cancer), detected with APC anti-human IgG1.
Test [15] has the same target. As to the kind of experiment: flow cytometry on EPLC-272H cells (squamous lung cancer), detected with APC anti-human IgG1.
For test [16] the target is unchanged. The test can be described thus: flow cytometry on HCC1806 cells (TNBC), detected with APC anti-human IgG1.
Test [17] shares this target. The test can be described thus: flow cytometry on HCC38 cells (TNBC), detected with APC anti-human IgG1.

B1: bemarituzumab (antibody, human IgG1, kappa, V domains shown)
VH: QVQLVQSGAEVKKPGSSVKVSCKASGYIFTTYNVHWVRQAPGQGLEWIGSIYPDNGDTSYNQNFKGRATITADKSTSTAYMELSSLRSEDTAVYYCARGDFAYWGQGTLVTVSS
VL: DIQMTQSPSSLSASVGDRVTITCKASQGVSNDVAWYQQKPGKAPKLLIYSASYRYTGVPSRFSGSGSGTDFTFTISSLQPEDIATYYCQQHSTTPYTFGQGTKLEIKR
modifications: afucosylated: glycan at Asn297 (EU numbering) lacks core fucose
Regarding B1, the Mean Fluorescence Intensity by FACS in test [1] is 7960 MFI; in test [2], 10.3 MFI; in [3], 20400 MFI; in test [4], -6 MFI; in [5], 638 MFI; in [6] it was 153 MFI. In addition, the Mean Fluorescence Intensity by FACS in test [7] was 1360 MFI; in test [8], 690 MFI; in test [9] it was 572 MFI; in [10], 7800 MFI; in [11], -1.2 MFI; in test [12], 252 MFI. For the same molecule, the Mean Fluorescence Intensity by FACS worked out at 401 MFI in test [13]; 123 MFI in [14]; 759 MFI in [15]; 401 MFI in test [16]; 346 MFI in [17].

Source of the values: patent US20250243284A1.
